Source: PMC12287439 (Nature Communications, 2025)

B1: LYCHOSPLD (permease-like domain of human LYCHOS) (domain or fragment)
chain: MNSNLPAENLTIAVNMTKTLPTAVTHGFNSTNDPPSMSITRLFPALLECFGIVLCGYIAGRANVITSTQAKGLGNFVSRFALPALLFKNMVVLNFSNVDWSFLYSILIAKASVFFIVCVLTLLVASPDSRFSKAGLFPIFATQSNDFALGYPIVEALYQTTYPEYLQYIYLVAPISLMMLNPIGFIFCEIQKWKDTQNASQNKIKIVGLGLLRVLQNPIVFMVFIGIAFNFILDRKVPVYVENFLDGLGNSFSGSALFYLGLTMVGKIKRLKKSAFVVLILLITAKLLVLPLLCREMVELLDKGDSVVNHTSLSNYAFLYGVFPVAPGVAIFATQFNMEVEIITSGMVISTFVSAPIMYVSAWLLTFPTM
B2: human LYCHOS, wild type (lysosomal cholesterol signaling protein) (natural protein, UniProt Q7Z3F1 1-870, looked up)
chain: MNSNLPAENLTIAVNMTKTLPTAVTHGFNSTNDPPSMSITRLFPALLECFGIVLCGYIAGRANVITSTQAKGLGNFVSRFALPALLFKNMVVLNFSNVDWSFLYSILIAKASVFFIVCVLTLLVASPDSRFSKAGLFPIFATQSNDFALGYPIVEALYQTTYPEYLQYIYLVAPISLMMLNPIGFIFCEIQKWKDTQNASQNKIKIVGLGLLRVLQNPIVFMVFIGIAFNFILDRKVPVYVENFLDGLGNSFSGSALFYLGLTMVGKIKRLKKSAFVVLILLITAKLLVLPLLCREMVELLDKGDSVVNHTSLSNYAFLYGVFPVAPGVAIFATQFNMEVEIITSGMVISTFVSAPIMYVSAWLLTFPTMDPKPLAYAIQNVSFDISIVSLISLIWSLAILLLSKKYKQLPHMLTTNLLIAQSIVCAGMMIWNFVKEKNFVGQILVFVLLYSSLYSTYLWTGLLAISLFLLKKRERVQIPVGIIIISGWGIPALLVGVLLITGKHNGDSIDSAFFYGKEQMITTAVTLFCSILIAGISLMCMNQTAQAGSYEGFDQSQSHKVVEPGNTAFEESPAPVNEPELFTSSIPETSCCSCSMGNGELHCPSIEPIANTSTSEPVIPSFEKNNHCVSRCNSQSCILAQEEEQYLQSGDQQLTRHVLLCLLLIIGLFANLSSCLWWLFNQEPGRLYVELQFFCAVFNFGQGFISFGIFGLDKHLIILPFKRRLEFLWNNKDTAENRDSPVSEEIKMTCQQFIHYHRDLCIRNIVKERRCGAKTSAGTFCGCDLVSWLIEVGLASDRGEAVIYGDRLVQGGVIQHITNEYEFRDEYLFYRFLQKSPEQSPPAINANTLQQERYKEIEHSSPPSHSPKT
B3: human LYCHOS Y57A (natural protein, UniProt Q7Z3F1 1-870, looked up)
chain: MNSNLPAENLTIAVNMTKTLPTAVTHGFNSTNDPPSMSITRLFPALLECFGIVLCGAIAGRANVITSTQAKGLGNFVSRFALPALLFKNMVVLNFSNVDWSFLYSILIAKASVFFIVCVLTLLVASPDSRFSKAGLFPIFATQSNDFALGYPIVEALYQTTYPEYLQYIYLVAPISLMMLNPIGFIFCEIQKWKDTQNASQNKIKIVGLGLLRVLQNPIVFMVFIGIAFNFILDRKVPVYVENFLDGLGNSFSGSALFYLGLTMVGKIKRLKKSAFVVLILLITAKLLVLPLLCREMVELLDKGDSVVNHTSLSNYAFLYGVFPVAPGVAIFATQFNMEVEIITSGMVISTFVSAPIMYVSAWLLTFPTMDPKPLAYAIQNVSFDISIVSLISLIWSLAILLLSKKYKQLPHMLTTNLLIAQSIVCAGMMIWNFVKEKNFVGQILVFVLLYSSLYSTYLWTGLLAISLFLLKKRERVQIPVGIIIISGWGIPALLVGVLLITGKHNGDSIDSAFFYGKEQMITTAVTLFCSILIAGISLMCMNQTAQAGSYEGFDQSQSHKVVEPGNTAFEESPAPVNEPELFTSSIPETSCCSCSMGNGELHCPSIEPIANTSTSEPVIPSFEKNNHCVSRCNSQSCILAQEEEQYLQSGDQQLTRHVLLCLLLIIGLFANLSSCLWWLFNQEPGRLYVELQFFCAVFNFGQGFISFGIFGLDKHLIILPFKRRLEFLWNNKDTAENRDSPVSEEIKMTCQQFIHYHRDLCIRNIVKERRCGAKTSAGTFCGCDLVSWLIEVGLASDRGEAVIYGDRLVQGGVIQHITNEYEFRDEYLFYRFLQKSPEQSPPAINANTLQQERYKEIEHSSPPSHSPKT

What was measured:
[1] = target: T1, LYCHOS (Homo sapiens, UniProt Q7Z3F1, Y57A); experiment: cryo-EM structure; type: binding
T1 sequence (Q7Z3F1 1-870 Y57A): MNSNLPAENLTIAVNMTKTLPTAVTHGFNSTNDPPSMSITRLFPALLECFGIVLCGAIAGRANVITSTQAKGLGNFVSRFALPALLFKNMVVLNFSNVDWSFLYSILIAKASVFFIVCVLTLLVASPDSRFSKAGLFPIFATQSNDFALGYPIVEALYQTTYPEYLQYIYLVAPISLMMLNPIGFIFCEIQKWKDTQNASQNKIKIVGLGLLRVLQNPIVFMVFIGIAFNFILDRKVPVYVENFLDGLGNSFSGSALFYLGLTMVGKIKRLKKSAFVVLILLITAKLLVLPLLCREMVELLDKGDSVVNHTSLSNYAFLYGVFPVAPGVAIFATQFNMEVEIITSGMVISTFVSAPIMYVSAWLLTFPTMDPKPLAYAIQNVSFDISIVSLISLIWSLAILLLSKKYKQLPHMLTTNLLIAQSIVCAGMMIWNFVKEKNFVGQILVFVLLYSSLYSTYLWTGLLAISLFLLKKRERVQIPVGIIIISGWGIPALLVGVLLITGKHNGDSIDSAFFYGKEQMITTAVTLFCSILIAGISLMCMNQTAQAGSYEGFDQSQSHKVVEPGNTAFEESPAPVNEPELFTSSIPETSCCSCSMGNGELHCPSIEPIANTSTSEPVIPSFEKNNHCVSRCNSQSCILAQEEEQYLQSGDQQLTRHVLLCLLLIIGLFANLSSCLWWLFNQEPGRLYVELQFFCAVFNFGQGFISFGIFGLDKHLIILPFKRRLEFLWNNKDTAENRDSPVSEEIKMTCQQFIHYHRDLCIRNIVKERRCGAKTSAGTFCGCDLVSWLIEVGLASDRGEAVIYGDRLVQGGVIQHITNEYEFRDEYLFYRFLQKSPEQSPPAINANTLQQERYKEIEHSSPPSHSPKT

[2] = target: LYCHOS (Homo sapiens, UniProt Q7Z3F1); experiment: BRET recruitment of GATOR1; type: cell-based
[3] = target: the molecule itself; experiment: cryo-EM structure

Chain of LYCHOS (Homo sapiens, UniProt Q7Z3F1) (Q8WTW4 whole entry partner, one chain of several): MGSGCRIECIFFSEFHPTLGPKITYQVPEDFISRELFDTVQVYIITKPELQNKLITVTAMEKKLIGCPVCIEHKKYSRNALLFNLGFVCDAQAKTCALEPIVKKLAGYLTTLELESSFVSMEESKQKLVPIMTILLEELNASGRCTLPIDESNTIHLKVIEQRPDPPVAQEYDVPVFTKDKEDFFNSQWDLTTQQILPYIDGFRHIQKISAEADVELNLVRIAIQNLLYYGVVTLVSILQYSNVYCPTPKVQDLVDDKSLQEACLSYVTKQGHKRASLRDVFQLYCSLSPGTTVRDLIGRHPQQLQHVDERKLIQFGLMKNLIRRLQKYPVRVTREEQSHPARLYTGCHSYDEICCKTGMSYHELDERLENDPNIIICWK
Chain of LYCHOS (Homo sapiens, UniProt Q7Z3F1) (Q12980 whole entry partner, one chain of several): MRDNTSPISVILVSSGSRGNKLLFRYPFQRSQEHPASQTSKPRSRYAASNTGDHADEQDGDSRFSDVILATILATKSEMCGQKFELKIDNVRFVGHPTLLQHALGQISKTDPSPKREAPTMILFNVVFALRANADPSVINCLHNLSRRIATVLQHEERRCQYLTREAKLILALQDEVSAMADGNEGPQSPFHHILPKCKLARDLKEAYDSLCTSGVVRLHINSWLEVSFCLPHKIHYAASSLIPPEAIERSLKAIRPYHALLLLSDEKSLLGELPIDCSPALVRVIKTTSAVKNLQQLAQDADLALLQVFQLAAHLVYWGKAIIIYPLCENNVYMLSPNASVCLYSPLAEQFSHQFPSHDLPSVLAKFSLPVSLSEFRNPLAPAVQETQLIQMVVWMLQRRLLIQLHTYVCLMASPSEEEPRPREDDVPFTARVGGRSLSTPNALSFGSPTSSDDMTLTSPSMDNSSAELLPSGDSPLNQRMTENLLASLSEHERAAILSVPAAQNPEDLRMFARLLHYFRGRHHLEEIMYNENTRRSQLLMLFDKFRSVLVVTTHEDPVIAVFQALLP
Chain of LYCHOS (Homo sapiens, UniProt Q7Z3F1) (O75140 whole entry partner, one chain of several): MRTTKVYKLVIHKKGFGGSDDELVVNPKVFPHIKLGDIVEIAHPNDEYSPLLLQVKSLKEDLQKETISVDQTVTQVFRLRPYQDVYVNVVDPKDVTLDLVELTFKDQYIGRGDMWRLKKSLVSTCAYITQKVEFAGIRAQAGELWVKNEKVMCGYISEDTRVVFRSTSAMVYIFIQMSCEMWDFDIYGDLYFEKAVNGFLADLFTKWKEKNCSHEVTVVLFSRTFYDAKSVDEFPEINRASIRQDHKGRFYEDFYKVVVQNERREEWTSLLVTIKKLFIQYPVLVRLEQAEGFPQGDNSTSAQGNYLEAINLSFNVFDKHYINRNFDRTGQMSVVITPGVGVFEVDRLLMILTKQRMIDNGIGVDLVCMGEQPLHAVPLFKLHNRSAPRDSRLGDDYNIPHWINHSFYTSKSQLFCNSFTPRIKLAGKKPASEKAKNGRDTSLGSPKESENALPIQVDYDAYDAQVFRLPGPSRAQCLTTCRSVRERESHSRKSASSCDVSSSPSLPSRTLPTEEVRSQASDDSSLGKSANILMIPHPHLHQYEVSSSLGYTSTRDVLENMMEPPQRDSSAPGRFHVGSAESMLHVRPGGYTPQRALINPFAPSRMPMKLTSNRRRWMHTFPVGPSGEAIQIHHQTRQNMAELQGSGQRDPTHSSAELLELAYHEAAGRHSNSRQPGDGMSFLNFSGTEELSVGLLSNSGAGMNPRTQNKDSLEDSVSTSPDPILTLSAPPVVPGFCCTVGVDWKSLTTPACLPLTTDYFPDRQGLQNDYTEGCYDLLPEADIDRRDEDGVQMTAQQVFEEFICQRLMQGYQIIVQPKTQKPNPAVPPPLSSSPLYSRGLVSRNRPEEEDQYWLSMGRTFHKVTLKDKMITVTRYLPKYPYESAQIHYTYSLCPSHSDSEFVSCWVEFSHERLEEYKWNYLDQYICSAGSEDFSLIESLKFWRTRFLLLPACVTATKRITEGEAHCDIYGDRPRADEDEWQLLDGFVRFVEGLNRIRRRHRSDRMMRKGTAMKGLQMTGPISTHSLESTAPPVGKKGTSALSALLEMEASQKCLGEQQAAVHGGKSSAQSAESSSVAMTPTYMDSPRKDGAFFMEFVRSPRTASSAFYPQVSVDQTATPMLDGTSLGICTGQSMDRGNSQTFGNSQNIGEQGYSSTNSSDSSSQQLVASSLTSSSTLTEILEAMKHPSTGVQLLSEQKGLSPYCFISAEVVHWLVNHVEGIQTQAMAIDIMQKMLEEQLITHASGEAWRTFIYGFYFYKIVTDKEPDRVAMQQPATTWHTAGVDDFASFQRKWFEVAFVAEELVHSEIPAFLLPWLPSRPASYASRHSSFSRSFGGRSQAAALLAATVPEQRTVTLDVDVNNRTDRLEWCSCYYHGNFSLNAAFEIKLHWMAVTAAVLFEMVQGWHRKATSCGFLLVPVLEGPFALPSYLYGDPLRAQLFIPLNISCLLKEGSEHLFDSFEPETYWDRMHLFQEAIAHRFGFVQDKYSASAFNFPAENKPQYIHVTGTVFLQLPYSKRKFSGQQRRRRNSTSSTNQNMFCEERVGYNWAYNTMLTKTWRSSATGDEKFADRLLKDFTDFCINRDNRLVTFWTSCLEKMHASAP

Molecule | stoichiometry N [3] | other results
CC(C)CCC[C@@H](C)[C@H]1CC[C@H]2[C@@H]3CC=C4C[C@@H](OC(=O)CCC(=O)O)CC[C@]4(C)[C@H]3CC[C@]12C [CHS, cholesteryl hemisuccinate] |  | cryo-EM structure (3.21 Å, contracted state) [1]: We found there exist two CHS molecules in the CBC, with which GLD is locked in contracted state
CC(C)CCC[C@@H](C)[C@H]1CC[C@H]2[C@@H]3CC=C4C[C@@H](O)CC[C@]4(C)[C@H]3CC[C@]12C [cholesterol] |  | EC50 [2]: 165 nM
B1 | 2 | 
B2 | 2 | 
B3 | 2 | 
